T1: Kir2.1-mediated IK1 current (Rattus norvegicus, UniProt Q64273)
T1 construct: endogenous in cells; host or cells: rat ventricular cardiomyocytes (RVCMs)
T1 sequence (Q64273 1-427): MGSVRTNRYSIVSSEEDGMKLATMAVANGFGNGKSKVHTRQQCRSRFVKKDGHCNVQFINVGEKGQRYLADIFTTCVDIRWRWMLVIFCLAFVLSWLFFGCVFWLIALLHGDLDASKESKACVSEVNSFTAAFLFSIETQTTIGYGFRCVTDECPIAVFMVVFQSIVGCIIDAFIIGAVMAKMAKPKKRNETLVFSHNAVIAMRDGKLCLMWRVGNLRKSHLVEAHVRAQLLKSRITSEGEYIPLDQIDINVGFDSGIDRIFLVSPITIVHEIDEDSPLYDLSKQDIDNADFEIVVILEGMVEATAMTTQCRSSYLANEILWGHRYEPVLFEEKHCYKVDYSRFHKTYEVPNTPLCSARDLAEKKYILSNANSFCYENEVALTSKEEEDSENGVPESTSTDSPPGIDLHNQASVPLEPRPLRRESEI

B1: SENP1: purified deSUMOylating enzyme (SUMO specific protease) introduced via the recording pipette or expressed (protein, UniProt Q9P0U3 1-644, looked up)
Sentrin-specific protease 1: MDDIADRMRMDAGEVTLVNHNSVFKTHLLPQTGFPEDQLSLSDQQILSSRQGHLDRSFTCSTRSAAYNPSYYSDNPSSDSFLGSGDLRTFGQSANGQWRNSTPSSSSSLQKSRNSRSLYLETRKTSSGLSNSFAGKSNHHCHVSAYEKSFPIKPVPSPSWSGSCRRSLLSPKKTQRRHVSTAEETVQEEEREIYRQLLQMVTGKQFTIAKPTTHFPLHLSRCLSSSKNTLKDSLFKNGNSCASQIIGSDTSSSGSASILTNQEQLSHSVYSLSSYTPDVAFGSKDSGTLHHPHHHHSVPHQPDNLAASNTQSEGSDSVILLKVKDSQTPTPSSTFFQAELWIKELTSVYDSRARERLRQIEEQKALALQLQNQRLQEREHSVHDSVELHLRVPLEKEIPVTVVQETQKKGHKLTDSEDEFPEITEEMEKEIKNVFRNGNQDEVLSEAFRLTITRKDIQTLNHLNWLNDEIINFYMNMLMERSKEKGLPSVHAFNTFFFTKLKTAGYQAVKRWTKKVDVFSVDILLVPIHLGVHWCLAVVDFRKKNITYYDSMGGINNEACRILLQYLKQESIDKKRKEFDTNGWQLFSKKSQEIPQQMNGSDCGMFACKYADCITKDRPINFTQQHMPYFRKRMVWEILHRKLL

Target: T1, Kir2.1-mediated IK1 current
Test: Whole-cell patch-clamp of IK1 in rat ventricular cardiomyocytes under acute hypoxia
Type: cell-based
Conditions: for effect on hypoxic inhibition of IK1: ambient O2 to 2% O2, agent in pipette (SENP1 2 μM, SUMO1 1 μM, diC8-PIP2) or pretreatment (TAK981)
Procedure: IK1 in rat ventricular cardiomyocytes studied by whole-cell patch-clamp. Hypoxia was a drop in O2 from ambient levels to 2%, measured at the cell. The time-course of hypoxic-inhibition was studied by recording the magnitude of IK1 every second. Cells were studied with the following pipette solutions: control, SUMO1 (1 μM) or SENP1 (2 μM). IK1 was blocked by the addition of 3 mM Ba^2+. […] Left, representative current sweeps; right, a representative time course showing the kinetics of hypoxic inhibition in cardiomyocytes studied with control pipette solution. The inhibition is precluded by including SENP1 (2 μM, magenta) in the recording pipette. The reverse ramp recording protocol is inset. […] SENP1 augments IK1 and protects the current from hypoxia. Data are from 8-10 RVCMs per group, **** P<0.0001, paired, two-tailed Student's […]. […] Representative data are shown with DAPI labeled nuclei and PLA interactions. Summary data are obtained from multiple experiments each with multiple fields of view containing 20-30 nuclei. The scale bar is 10 μm.
To knockdown Kir2.1 expression, RVCMs were transduced with lentiviral particles carrying cGFP and shRNA targeting KCNJ2-mRNA for the channel. Kir2.1 knockdown cells (Kir2.1kd-CMs) were identified by expression of cGFP. Cells were studied with control pipette solution, or with pipette solutions containing purified SUMO1 (1 μM) or SENP1 (2 μM). Where indicated, the control pipette solution contained diC8 PIP2. Paired patch-clamp data were analyzed by Students t-test; ***, P<0.01. […] Kir2.1kd-CMs are identified by expression of GFP (inset, scale bar=10 μm). […] The arrow indicates the change in current-magnitude between exposure to ambient O2 and 2% O2 in the same cell. Right, Concentration-response curve showing that including diC8-PIP2 in the pipette opposes hypoxic-inhibition of IK1 in control RVCMs and RVCMs expressing the scrambled shRNA. The hypoxic-response is diminished in Kir2.1kd-CMs. Data are mean±s.d. for 7-8 cells per condition. […] Current inhibition is diminished when SENP1 is included in the recording pipette and is not observed when SUMO-insensitive Kir2.1-K49Q channels are studied. Data are mean±s.d. for 6 cells per condition.
Hypoxic-inhibition of Kir2.1 in cardiomyocytes via SUMOylation. We studied the effects of acute hypoxia on IK1 in rat ventricular cardiomyocytes (RVCMs) by whole cell patch-clamp recording. […] Both the hypoxia-sensitive and insensitive components of the current were blocked by Ba^2+ (3 mM), consistent with the known role of Kir2 channels in mediating IK1 (FIG. 1a). To determine if SUMOylation mediates the hypoxic inhibition of IK1 we introduced purified SENP1 (2 μM) to the cytosol via the recording pipette. […] Both the SUMO1 and hypoxia-mediated inhibition of IK1 remained stable throughout the remainder of the experiment (up to 10 mins). […] Next, we visualized and quantified the interactions between native Kir2.1 and SUMO1 in RVCMs using the proximity-ligation association (PLA) assay with antibodies we validated in heterologous cells by Western blot. […] The validated Kir2 antibodies were paired with SUMO1 antibodies that we have tested and utilized before. Under control conditions, interactions were observed between Kir2.1 and SUMO1, but not between Kir2.2 or Kir2.3 and SUMO1. […] Although cardiomyocytes are typically cultured at 21% O2, the O2-level in the myocardium is estimated to be in the range of 5-10% O2, under physiological conditions.
Hypoxic-inhibition of IK1/Kir2.1 is reduced by diC8-PIP2 in a concentration-dependent manner. We have shown that adding the exogenous, soluble PIP2 analog diC8-PIP2 into the patch-pipette opposes hypoxic-inhibition of IK1 (FIG. 4). […] As before, the effects of hypoxia were ameliorated by SENP1 (2 μM) and were not observed in the SUMO and hypoxia insensitive Kir2.1-K49Q channels (FIG. 4D).

Molecule | effect on hypoxic inhibition of IK1 | decrease in IK1 (SUMO1 1 μM in recording pipette) | increase in IK1 (purified SENP1 2 μM via recording pipette, mean±S.D.)
Cc1sc(C(=O)c2cncnc2N[C@@H]2C[C@H](COS(N)(=O)=O)[C@@H](O)C2)cc1[C@@H]1NCCc2ccc(Cl)cc21 [TAK981, Subasumstat] | precludes hypoxic inhibition of Kir2 currents | – | –
SUMO1: purified SUMO1 (small ubiquitin-related modifier) protein introduced via the recording pipette or co-expressed | hypoxia-sensitive component of the current was abolished | 48±8% | –
B1 | insensitive to hypoxia | – | 17.6±6.5%

— patent US20240358731A1, “SUMO PATHWAY AS AN OXYGEN SENSOR RELEVANT TO THE PATHOPHYSIOLOGY OF PULMONARY ARTERY HYPERTENSION AND CARDIAC ARRHYTHMIA” (Northeastern University, priority 2023, published 2024)
